Measurements taken from patent publication US20060223158.

How the values were obtained:
[1] = system: Cdk5 purified from insect Sf9 cultures
[2] = system: p35-His6 purified from insect Sf9 cultures

CK1α (New England Biolabs), sequence (P48729 2-337): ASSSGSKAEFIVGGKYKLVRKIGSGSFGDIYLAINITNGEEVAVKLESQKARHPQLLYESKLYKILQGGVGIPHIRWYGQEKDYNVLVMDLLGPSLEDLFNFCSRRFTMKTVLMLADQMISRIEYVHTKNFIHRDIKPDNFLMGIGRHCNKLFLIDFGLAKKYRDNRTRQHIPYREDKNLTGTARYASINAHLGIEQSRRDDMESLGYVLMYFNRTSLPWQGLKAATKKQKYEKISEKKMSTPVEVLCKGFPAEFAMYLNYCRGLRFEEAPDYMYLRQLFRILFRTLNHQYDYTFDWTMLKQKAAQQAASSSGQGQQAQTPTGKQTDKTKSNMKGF

## CK1α (New England Biolabs)
[1]
  32P incorporation, in vitro phosphorylation, SDS-PAGE and autoradiography: phosphorylated Cdk5 catalytic subunit to a much lesser extent
[2]
  32P incorporation, in vitro phosphorylation, SDS-PAGE and autoradiography: CKI was able to efficiently phosphorylate p25
  stoichiometry of phosphorylation in vitro: phosphorylation of p25 to approximately 2 mol/mol
